Measured values taken from patent US20170313770A1 (ORDER MADE MEDICAL RESEARCH, published 2017).

Target: IMI4C4a antibody (monoclonal antibody produced from Mouse-Mouse hybridoma IMI4C4a)
Assay: competitive inhibition ELISA, peptide preincubated with IMI4C4a (333 pM), immobilized ICD4

Sequence of IMI4C4a antibody (monoclonal antibody produced from Mouse-Mouse hybridoma IMI4C4a) (VH, as listed by the source, chain 1 of 2): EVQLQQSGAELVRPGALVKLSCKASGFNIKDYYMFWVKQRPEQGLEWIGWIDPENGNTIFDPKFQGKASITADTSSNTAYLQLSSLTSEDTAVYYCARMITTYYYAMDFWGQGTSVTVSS
Sequence of IMI4C4a antibody (monoclonal antibody produced from Mouse-Mouse hybridoma IMI4C4a) (V domain, as listed by the source, chain 2 of 2): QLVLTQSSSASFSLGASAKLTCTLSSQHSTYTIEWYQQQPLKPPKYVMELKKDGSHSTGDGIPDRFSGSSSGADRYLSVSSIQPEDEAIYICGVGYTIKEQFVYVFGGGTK

Binder | molar ratio to the antibody at which an inhibitory effect started | molar ratio to the antibody giving significant inhibition | molar ratio to the antibody without inhibition
TQKAGLPSKNLTVSQNQ [ICD4_242-258 (chemically synthesized peptide)] | 50 fold molar ratio relative to the antibody concentration | ≥ 500 fold molar ratio relative to the antibody concentration | –
STIKDSTTQKAGLPSK [ICD4_235-250 (chemically synthesized peptide)] | – | – | > 10000 fold molar ratio relative to the antibody concentration
THCHETEESTIKDSTT [ICD4_227-242 (chemically synthesized peptide)] | – | – | > 10000 fold molar ratio relative to the antibody concentration
